Experimental data reported in patent US10428149 (dated 2019).
Positions count from the first letter of the chain named. Values belong to the binder of their own block, whether it stands above or below them.

What was measured:
HER3 [1] = target: T1, HER3 (human, UniProt P21860); test: FACS, Colo205 cells
HER3 [2] = target: T1, HER3; test: ELISA
TRAIL-R2 (DR5) [3] = target: T2, TRAIL-R2 (DR5) (human, UniProt O14763); test: ELISA
EGFR [4] = target: T3, EGFR (human, UniProt P00533); test: ELISA
EGFR [5] = target: T3, EGFR; test: FACS, Colo205 cells
TRAIL-R2 (DR5) [6] = target: T2, TRAIL-R2 (DR5); test: FACS, Colo205 cells
FAP = FAP (human, UniProt Q12884); test: FACS, HT1080 FAP+ cells
Sequence of FAP (Q12884 26-760): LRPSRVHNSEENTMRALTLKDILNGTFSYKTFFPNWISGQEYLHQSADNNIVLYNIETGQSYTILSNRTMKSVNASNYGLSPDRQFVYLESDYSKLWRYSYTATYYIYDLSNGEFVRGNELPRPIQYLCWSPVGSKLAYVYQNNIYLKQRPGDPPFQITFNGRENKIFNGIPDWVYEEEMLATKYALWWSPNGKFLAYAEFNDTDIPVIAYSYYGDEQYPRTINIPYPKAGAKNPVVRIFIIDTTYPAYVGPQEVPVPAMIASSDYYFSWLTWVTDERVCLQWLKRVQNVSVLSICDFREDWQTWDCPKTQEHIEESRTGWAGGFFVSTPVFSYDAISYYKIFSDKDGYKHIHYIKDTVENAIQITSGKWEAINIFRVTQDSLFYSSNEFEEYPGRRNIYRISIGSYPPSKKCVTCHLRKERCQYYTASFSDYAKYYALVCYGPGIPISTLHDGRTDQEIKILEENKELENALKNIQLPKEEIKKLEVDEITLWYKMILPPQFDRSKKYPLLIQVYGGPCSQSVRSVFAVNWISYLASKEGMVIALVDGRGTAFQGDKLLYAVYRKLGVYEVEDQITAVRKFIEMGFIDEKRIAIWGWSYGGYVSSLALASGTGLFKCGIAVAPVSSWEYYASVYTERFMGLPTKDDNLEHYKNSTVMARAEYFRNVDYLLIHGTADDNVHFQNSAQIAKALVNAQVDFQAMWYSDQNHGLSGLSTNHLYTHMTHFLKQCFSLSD

B3: dsDb3M6-scTRAIL3-FLVGGGPQRVA (antibody)
chain: DYKDDDDKGGGGSGTEVQLLESGGGLVQPGGSLRLSCAASGFTFSHYVMAWVRQAPGKCLEWVSSISSSGGWTLYADSVKGRFTISRDNSKNTLYLQMNSLRAEDTAVYYCTRGLKMATIFDYWGQGTLVTVSSGGGGSQSALTQPASVSGSPGQSITISCTGTSSDVGSYNVVSWYQQHPGKAPKLIIYEVSQRPSGVSNRFSGSKSGNTASLTISGLQTEDEADYYCSSYAGSSIFVIFGCGTKVTVLAAAGGSGGGPQRVAAHITGTRGRSNTLSSPNSKNEKALGRKINSWESSRSGHSFLSNLHLRNGELVIHEKGFYYIYSQTYFRFQEEIKENTKNDKQMVQYIYKYTSYPDPILLMKSARNSCWSKDAEYGLYSIYQGGIFELKENDRIFVSVTNEHLIDMDHEASFFGAFLVGGGPQRVAAHITGTRGRSNTLSSPNSKNEKALGRKINSWESSRSGHSFLSNLHLRNGELVIHEKGFYYIYSQTYFRFQEEIKENTKNDKQMVQYIYKYTSYPDPILLMKSARNSCWSKDAEYGLYSIYQGGIFELKENDRIFVSVTNEHLIDMDHEASFFGAFLVGGGPQRVAAHITGTRGRSNTLSSPNSKNEKALGRKINSWESSRSGHSFLSNLHLRNGELVIHEKGFYYIYSQTYFRFQEEIKENTKNDKQMVQYIYKYTSYPDPILLMKSARNSCWSKDAEYGLYSIYQGGIFELKENDRIFVSVTNEHLIDMDHEASFFGAFLVG
EC50 (HER3 [1]): 32.5 nM | EC50 (TRAIL-R2 (DR5) [3]): 2.83 nM | EC50 (HER3 [2]): 8.54 nM

B4: EHD2-scTRAIL3-FLVGGGPQRVA (designed binder)
chain 1: DFTPPTVKILQSSCDGGGHFPPTIQLLCLVSGYTPGTINITWLEDGQVMDVDLSTASTTQEGELASTQSELTLSQKHWLSDRTYTCQVTYQGHTFEDSTKKCADSN
chain 2: MDWTWRVFCLLAVAPGAHSLDDYKDDDDKEFGGGPQRVAAHITGTRGRSNTLSSPNSKNEKALGRKINSWESSRSGHSFLSNLHLRNGELVIHEKGFYYIYSQTYFRFQEEIKENTKNDKQMVQYIYKYTSYPDPILLMKSARNSCWSKDAEYGLYSIYQGGIFELKENDRIFVSVTNEHLIDMDHEASFFGAFLVGGGPQRVAAHITGTRGRSNTLSSPNSKNEKALGRKINSWESSRSGHSFLSNLHLRNGELVIHEKGFYYIYSQTYFRFQEEIKENTKNDKQMVQYIYKYTSYPDPILLMKSARNSCWSKDAEYGLYSIYQGGIFELKENDRIFVSVTNEHLIDMDHEASFFGAFLVGGGPQRVAAHITGTRGRSNTLSSPNSKNEKALGRKINSWESSRSGHSFLSNLHLRNGELVIHEKGFYYIYSQTYFRFQEEIKENTKNDKQMVQYIYKYTSYPDPILLMKSARNSCWSKDAEYGLYSIYQGGIFELKENDRIFVSVTNEHLIDMDHEASFFGAFLV
EC50 (TRAIL-R2 (DR5) [3]): 1.94 nM | EC50 (TRAIL-R2 (DR5) [6]): > 100 nM

B6: Db anti-FAP-Glyco-scTRAIL3-FAVSGAA (antibody)
chain: MDWTWRVFCLLAVAPGAHSLEASDYKDDDDKGTGQVQLVQSGAEVKKPGASVKVSCKASGYTFTENIIHWVRQAPGQGLEWMGWFHPGSGSIKYNEKFKDRVTMTADTSTSTVYMELSSLRSEDTAVYYCARHGGTGRGAMDYWGQGTLVTVSSGGGGSDIQMTQSPSSLSASVGDRVTITCRASKSVSTSAYSYMHWYQQKPGKAPKLLIYLASNLESGVPSRFSGSGSGTDFTLTISSLQPEDFATYYCQHSRELPYTFGQGTKLEIKRAAAGNGTSNGTSEFGGAAAHITGTRGRSNTLSSPNSKNEKALGRKINSWESSRSGHSFLSNLHLRNGELVIHEKGFYYIYSQTYFRFQEEIKENTKNDKQMVQYIYKYTSYPDPILLMKSARNSCWSKDAEYGLYSIYQGGIFELKENDRIFVSVTNEHLIDMDHEASFFGAFAVSGAAAHITGTRGRSNTLSSPNSKNEKALGRKINSWESSRSGHSFLSNLHLRNGELVIHEKGFYYIYSQTYFRFQEEIKENTKNDKQMVQYIYKYTSYPDPILLMKSARNSCWSKDAEYGLYSIYQGGIFELKENDRIFVSVTNEHLIDMDHEASFFGAFAVSGAAAHITGTRGRSNTLSSPNSKNEKALGRKINSWESSRSGHSFLSNLHLRNGELVIHEKGFYYIYSQTYFRFQEEIKENTKNDKQMVQYIYKYTSYPDPILLMKSARNSCWSKDAEYGLYSIYQGGIFELKENDRIFVSVTNEHLIDMDHEASFFGAFAVS
EC50 (FAP): 14 nM

B8: Db3M6-scTRAIL3-… (HER3 arm) (antibody, V domains shown)
VH: EVQLLESGGGLVQPGGSLRLSCAASGFTFSHYVMAWVRQAPGKGLEWVSSISSSGGWTLYADSVKGRFTISRDNSKNTLYLQMNSLRAEDTAVYYCTRGLKMATIFDYWGQGTLVTVSS
VL: QSALTQPASVSGSPGQSITISCTGTSSDVGSYNVVSWYQQHPGKAPKLIIYEVSQRPSGVSNRFSGSKSGNTASLTISGLQTEDEADYYCSSYAGSSIFVIFGGGTKVTVL
EC50 (HER3 [1]): 10.4 nM | EC50 (HER3 [2]): 5.88 nM

B9: Dbhu225-scTRAIL3-FLVGGGPQRVA (antibody)
chain: DYKDDDDKGGGGSGTEVQLVESGGGLVQPGGSLRLSCAASGFSLTNYGVHWVRQAPGKGLEWLGVIWSGGNTDYNTPFTSRFTISRDNSKNTLYLQMNSLRAEDTAVYYCARALTYYDYEFAYWGQGTTVTVSSGGGGSDIQLTQSPSFLSASVGDRVTITCRASQSIGTNIHWYQQKPGKAPKLLIKYASESISGVPSRFSGSGSGTEFTLTISSLQPEDFATYYCQQNNNWPTTFGAGTKLEIKRAAAGGSGGGPQRVAAHITGTRGRSNTLSSPNSKNEKALGRKINSWESSRSGHSFLSNLHLRNGELVIHEKGFYYIYSQTYFRFQEEIKENTKNDKQMVQYIYKYTSYPDPILLMKSARNSCWSKDAEYGLYSIYQGGIFELKENDRIFVSVTNEHLIDMDHEASFFGAFLVGGGPQRVAAHITGTRGRSNTLSSPNSKNEKALGRKINSWESSRSGHSFLSNLHLRNGELVIHEKGFYYIYSQTYFRFQEEIKENTKNDKQMVQYIYKYTSYPDPILLMKSARNSCWSKDAEYGLYSIYQGGIFELKENDRIFVSVTNEHLIDMDHEASFFGAFLVGGGPQRVAAHITGTRGRSNTLSSPNSKNEKALGRKINSWESSRSGHSFLSNLHLRNGELVIHEKGFYYIYSQTYFRFQEEIKENTKNDKQMVQYIYKYTSYPDPILLMKSARNSCWSKDAEYGLYSIYQGGIFELKENDRIFVSVTNEHLIDMDHEASFFGAFLVG
EC50 (TRAIL-R2 (DR5) [3]): 0.79 nM | EC50 (EGFR [4]): 0.77 nM | EC50 (EGFR [5]): 0.87 nM

Next, values leading:

EC50 (HER3 [1]): 19.9 nM | EC50 (HER3 [2]): 11.6 nM
B1: scFv3M6-EHD2-scTRAIL3-… (HER3 arm) (antibody)
chain: EVQLLESGGGLVQPGGSLRLSCAASGFTFSHYVMAWVRQAPGKGLEWVSSISSSGGWTLYADSVKGRFTISRDNSKNTLYLQMNSLRAEDTAVYYCTRGLKMATIFDYWGQGTLVTVSSGGGGSGGGGSGGGGSQSALTQPASVSGSPGQSITISCTGTSSDVGSYNVVSWYQQHPGKAPKLIIYEVSQRPSGVSNRFSGSKSGNTASLTISGLQTEDEADYYCSSYAGSSIFVIFGGGTKVTVLAAAGGSGGDFTPPTVKILQSSCDGGGHFPPTIQLLCLVSGYTPGTINITWLEDGQVMDVDLSTASTTQEGELASTQSELTLSQKHWLSDRTYTCQVTYQGHTFEDSTKKCADSN

EC50 (TRAIL-R2 (DR5) [3]): 1.82 nM | EC50 (EGFR [4]): 1.25 nM | EC50 (EGFR [5]): 0.58 nM
B2: scFvhu225-EHD2-scTRAIL3-FLVGGGPQRVA (antibody)
chain: DYKDDDDKGGGGSGTEVQLVESGGGLVQPGGSLRLSCAASGFSLTNYGVHWVRQAPGKGLEWLGVIWSGGNTDYNTPFTSRFTISRDNSKNTLYLQMNSLRAEDTAVYYCARALTYYDYEFAYWGQGTTVTVSSGGGGSGGGGSGGGGSDIQLTQSPSFLSASVGDRVTITCRASQSIGTNIHWYQQKPGKAPKLLIKYASESISGVPSRFSGSGSGTEFTLTISSLQPEDFATYYCQQNNNWPTTFGAGTKLEIKRAAAGGSGGDFTPPTVKILQSSCDGGGHFPPTIQLLCLVSGYTPGTINITWLEDGQVMDVDLSTASTTQEGELASTQSELTLSQKHWLSDRTYTCQVTYQGHTFEDSTKKCADSNGGSGGASSGGGPQRVAAHITGTRGRSNTLSSPNSKNEKALGRKINSWESSRSGHSFLSNLHLRNGELVIHEKGFYYIYSQTYFRFQEEIKENTKNDKQMVQYIYKYTSYPDPILLMKSARNSCWSKDAEYGLYSIYQGGIFELKENDRIFVSVTNEHLIDMDHEASFFGAFLVGGGPQRVAAHITGTRGRSNTLSSPNSKNEKALGRKINSWESSRSGHSFLSNLHLRNGELVIHEKGFYYIYSQTYFRFQEEIKENTKNDKQMVQYIYKYTSYPDPILLMKSARNSCWSKDAEYGLYSIYQGGIFELKENDRIFVSVTNEHLIDMDHEASFFGAFLVGGGPQRVAAHITGTRGRSNTLSSPNSKNEKALGRKINSWESSRSGHSFLSNLHLRNGELVIHEKGFYYIYSQTYFRFQEEIKENTKNDKQMVQYIYKYTSYPDPILLMKSARNSCWSKDAEYGLYSIYQGGIFELKENDRIFVSVTNEHLIDMDHEASFFGAFLVG

EC50 (TRAIL-R2 (DR5) [3]): 1.74 nM | EC50 (TRAIL-R2 (DR5) [6]): 5.67 nM
B5: scTRAIL3-FLVGGGPQRVA (designed binder)
chain: B4 chain 2

EC50 (HER3 [1]): 13.1 nM
B7: scFv3M6-Fc-scTRAIL3-… (HER3 arm) (antibody, V domains shown)
VH: B8 VH
VL: B8 VL

EC50 (TRAIL-R2 (DR5) [3]): 1.29 nM | EC50 (EGFR [4]): 0.98 nM | EC50 (EGFR [5]): 0.86 nM
B10: dsDbhu225-scTRAIL3-FLVGGGPQRVA (antibody)
chain: B9 chain with G59C, A239C
